From publication PMC4356359, “The structure of bradyzoite-specific enolase from Toxoplasma gondii reveals insights into its dual cytoplasmic and nuclear functions” come the findings set out here.

T1: TgENO1 (bradyzoite enolase 1) (Toxoplasma gondii, UniProt B9PH47 1-444)
T1 sequence: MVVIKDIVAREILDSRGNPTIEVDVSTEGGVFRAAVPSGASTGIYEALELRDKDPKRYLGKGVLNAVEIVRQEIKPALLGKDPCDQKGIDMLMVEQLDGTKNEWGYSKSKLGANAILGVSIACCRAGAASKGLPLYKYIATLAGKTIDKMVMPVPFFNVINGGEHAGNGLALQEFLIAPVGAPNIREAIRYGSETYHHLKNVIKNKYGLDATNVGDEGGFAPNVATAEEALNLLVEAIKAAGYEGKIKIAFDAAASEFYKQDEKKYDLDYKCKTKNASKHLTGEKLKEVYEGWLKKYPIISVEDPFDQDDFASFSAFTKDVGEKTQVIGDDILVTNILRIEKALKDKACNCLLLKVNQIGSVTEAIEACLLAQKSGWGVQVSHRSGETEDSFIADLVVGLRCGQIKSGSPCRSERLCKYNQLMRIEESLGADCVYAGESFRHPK

B1: probe C (random negative control) (dsDNA)
DNA 1: TTCTCCTGTGTCAT
DNA 2: ATGACACAGGAGAA
B2: probe B (c-Myc promoter TATA box) (dsDNA)
DNA 1: ATATAAAATCCGTA
DNA 2: TACGGATTTTATAT
B3: TgMAG1 probe (TTTTCT motif) (dsDNA)
DNA 1: TTTTCTTCTCAAGA
DNA 2: TCTTGAGAAGAAAA

The target of this data set is T1, TgENO1 (bradyzoite enolase 1). Put plainly: EMSA; EMSA with Thermo Scientific band-shift kit per manufacturer; buffer, salt, pH and temperature not stated (protein stock 10 mM Tris-HCl pH 8.3, 500 mM NaCl, 5 mM beta-mercaptoethanol). Particulars: protein: recombinant; tags: N-terminal His-TEV (pCCK-N'-HisTEV vector).
As for B1, the binding result is listed as “no binding”.

Regarding B2, the binding result was “no binding”.

Regarding B3, the binding result is “binds”.
